Results taken from US20100029568A1, “TIGHTER-BINDING C-PEPTIDE INHIBITORS OF HIV-1 ENTRY” (priority 2007, published 2010).

Legend:
[1] = target: Res 4 (SDTV) Env from HIV-1 strain HXB2 (HIV-1 strain HXB2) (UniProt P04578); experiment: cell-based or functional assay
[2] = target: wild type Env (gp120/gp41) from HIV-1 strain HXB2 (HIV-1 strain HXB2) (UniProt P04578); experiment: cell-based or functional assay

Substance: T20 (peptide)
- IC50, nM; inhibitory potency against pseudotyped HIV-1 [1]: 900 nM
- IC50, nM; inhibitory potency against pseudotyped HIV-1 [2]: 2.3 nM
